Experimental findings from patent publication US9931373B2, “Method of reducing cancer cell proliferation by administering recombinant alpha-fetoprotein” (priority 2005, dated 2018) are described below.

In experiment [1] the test system is Human Umbilical Vein Endothelial Cells (HUVEC). Nature of the experiment: Wound healing assay with HUVEC. Type of experiment: cell-based. Particulars: serum-free medium, 50 μg/ml rhAFP, 18 hrs; HSA as control. As for the experimental part: HUVECs were plated onto the gelatin-coated 24-well plates, and grown for confluence. Than monolayers were wounded by scrapper, and cells were incubated in the serum-free medium with 0.1-0.5 mg/ml of rhAFP or HSA.
To test ability of rhAFP to stimulate regeneration of damaged tissue we established classical wound healing assay with normal Human Umbilical Vein Endothelial Cells (HUVEC) obtained after surgical resection of human vein tissue. HUVEC cells were cultivated in DMEM/F12 medium with addition 10% FBS and 0.1% ECGF on the 60 mm Petri dishes at 37° C. at 5% CO2 atmosphere. HUVECs were plated on gelatin-coated 24-well plates, and grown for confluence, than monolayers were wounded and cells were incubated in serum-free medium with 50 μg/ml rhAFP or 50 μg/ml HSA, healing was observed after 18 hrs incubation. Images of wound healing were taken after staining with crystal violet.

Experiment [2] deals with human hepatoma cells HepG2. Nature of the experiment: Human hepatoma xenografts in Nude mice, rhAFP monotherapy. The class given is in vivo, Balb C/Nude mice. The method, then: To study tumor-suppression upon monotherapy with rhAFP we used in vivo model of human hepatoma xenografts in Nude mice. Balb C/Nude mice 8/group were implanted with 12×10^6 human hepatoma cells HepG2 s/c. rhAFP 10 mg/kg was injected i/p 9 times each 48 hrs during 16 days. Effectiveness of treatment was assessed by measuring and weighting of the tumor at the 30th day of experiment and by comparison of the quantity of mice with tumor during time of observation.

In experiment [3] the test system is cells of B-cellular lymphoma Raji. The experiment can be described thus: Suppression of growth of Raji cells in vitro, [H3]-thymidine incorporation. The class given is cell-based, human. Particulars: 12 hours with AFP, dose-dependent, FIG. 5. The method, then:
The functional activity of rAFP and the modified forms thereof were determined according to its capability of suppressing the growth of cells of B-cellular lymphoma Raji in the culture in vitro, as earlier described (Semenkova, L. 1997, Tumor Biol. 18, 261-274; Dudich E. I., et al., 1998, Tumor Biol. 198, 30-40). Preliminarily washed by a fresh medium, Raji cells were placed into each cell of a 96-alverolar plate according to 5×10^3 in 0.1 ml of a medium RPMI-1640 in the presence of a 10% fetal calf serum, then different doses of AFP were added for 12 hours. Proliferation of the cells was measured by a standard method by the introduction of [H^3]-thymidine during the last 4 hours of culturing. For comparison, the dose-dependent reactivity was studies for two samples of AFP of embryonal origin embrAFP and yeast rAFP (FIG. 5). […] Similarly, in order to determine the activity to preparations on the base of AFP in vitro, any other lines of cancer cells may be used that are sensitive to the suppressive action of AFP, such as human hepatocarcinoma HepG2, breast cancer MCF-7, prostate cancer LnCap, myeloblastoma U-937 and others (Semenkova, L. 1997, Tumor Biol. 18, 261-274; Dudich E. I., et al., 1998, Tumor Biol. 198, 30-40).

In experiment [4] the test system is syngeneic leukemia cells P388. Nature of the experiment: Syngeneic acute leukemia P388 in BDF1 mice, survival over 30 days. The class given is in vivo. The settings on record: rhAFP 25.0 mg/kg. An excerpt:
We have studied the effect of combined treatment with AFP+Dox of acute leukemia in mice BDF1 with transplanted intrapleurally syngeneic P388 leukemia cells. BDF-1 mice (84 male, 28 mice per treatment) were implanted with lethal dose of 12×10^6 syngeneic leukemia cells P388 in the pleural region. Animals were subjected to monotherapy with Dox and combined therapy with rhAFP/Dox upon simultaneous single injection of drugs in various doses. Animal survival was compared over 30 days.

B1: rhAFP: recombinant human alpha-fetoprotein secreted by yeast Saccharomyces cerevisiae YBS723/pKX, glycosylated, mature human AFP sequence SEQ ID NO:2 (protein, listed as Homo sapiens)
chain: TLHRNEYGIASILDSYQCTAEISLADLATIFFAQFVQEATYKEVSKMVKDALTAIEKPTGDEQSSGCLENQLPAFLEELCHEKEILEKYGHSDCCSQSEEGRHNCFLAHKKPTPASIPLFQVPEPVTSCEAYEEDRETFMNKFIYEIARRHPFLYAPTILLWAARYDKIIPSCCKAENAVECFQTKAATVTKELRESSLLNQHACAVMKNFGTRTFQAITVTKLSQKFTKVNFTEIQKLVLDVAHVHEHCCRGDVLDCLQDGEKIMSYICSQQDTLSNKITECCKLTTLERGQCIIHAENDEKPEGLSPNLNRFLGDRDFNQFSSGEKNIFLASFVHEYSRRHPQLAVSVILRVAKGYQELLEKCFQTENPLECQDKGEEELQKYIQESQALAKRSCGLFQKLGEYYLQNAFLVAYTKKAPQLTSSELMAITRKMAATAATCCQLSEDKLLACGEGAADIIIGHLCIRHEMTPVNPGVGQCCTSSYANRRPCFSSLVVDETYVPPAFSDDKFIFHKDLCQAQGVALQTMKQEFLINLVKQKPQITEEQLEAVIADFSGLLEKCCQGQEQEVCFAEEGQKLISKTRAALGV
modifications: yeast glycosylation
As for B1, in experiment [1], the “migration of HUVEC to the wounded area” value is recorded as “significantly activated the migration of HUVEC to the wounded area”. The “tumor growth in the period of treatment” value in experiment [2] (rhAFP 10 mg/kg i/p 9 times each 48 hrs during 16 days) was “tumors did not grow in the period of treatment”. Moreover, in experiment [2] (rhAFP 10 mg/kg i/p 9 times each 48 hrs, tumor weighed at 30th day), the “inhibition of total tumor weight relatively to untreated control” value was 90%. In experiment [3], the “cytostatic activity, inhibition of growth of Raji cells” value is reported as “expressed cytostatic activity”. For the same molecule, in experiment [4], the “Survival more 30 days” value is listed as 0 and the T/C % amounted to 118%. Besides, the “T (survival, days)” value in experiment [4] (single injection) was “[15.7/21.8] 7.7 [6.4/ days”.
